Experimental data taken from patent US20160244525A1.
Positions count from the first letter of the chain named.

B1: 2B.1.3.12 (antibody, human IgG1, kappa, V domains shown)
VH: EVQLVESGGGLVQPGGSLRLSCAASGFPFTSTGISWVRQAPGKGLEWVGRTHLGDGSTNYADSVKGRFTISADTSKNTAYLQMNSLRAEDTAVYYCARTYGIYDTYDMYTEYVMDYWGQGTLVTVSS
VL: DIQMTQSPSSLSASVGDRVTITCRASQDVDTSLAWYKQKPGKAPKLLIYSASFLYSGVPSRFSGSGSGTDFTLTISSLQPEDFATYYCQQSTGHPQTFGQGTKVEIKR
B2: 2B.1.1 (antibody, human IgG1, kappa, V domains shown)
VH: B1 VH with P28T, T51Y, H52W, L53A, G54W, T105L, D107V, M108D
VL: B1 VL
B3: 2B.1.3.10 (antibody, human IgG1, kappa, V domains shown)
VH: B1 VH with T32Q, M108K
VL: B1 VL
B4: 2B.1.3.8 (antibody, human IgG1, kappa, V domains shown)
VH: B1 VH with T32L, T105I, D107E, M108K
VL: B1 VL
B5: 2B.1.3.4 (antibody, human IgG1, kappa, V domains shown)
VH: B1 VH with P28T, T105I, D107G, M108G
VL: B1 VL
B6: 2B.1.3.2 (antibody, human IgG1, kappa, V domains shown)
VH: B1 VH with P28T, M108N
VL: B1 VL
B7: 2B.1.3.6 (antibody, human IgG1, kappa, V domains shown)
VH: B1 VH with P28T, M108E
VL: B1 VL
B8: 2B.1.95 (antibody, human IgG1, kappa, V domains shown)
VH: B1 VH with P28T, T51L, H52I, L53F, G54F, D55T, T105L, D107V, M108D
VL: B1 VL
B9: 2B.1.88 (antibody, human IgG1, kappa, V domains shown)
VH: B1 VH with P28T, T51I, H52W, L53M, G54F, D55T, T105L, D107V, M108D
VL: B1 VL
B10: 2B.1.32 (antibody, human IgG1, kappa, V domains shown)
VH: B1 VH with P28T, T51W, H52V, L53G, G54F, D55T, T105L, D107V, M108D
VL: B1 VL
B11: 2B.1.73 (antibody, human IgG1, kappa, V domains shown)
VH: B1 VH with P28T, T51M, H52I, L53F, G54Y, D55N, T105L, D107V, M108D
VL: B1 VL
B12: 2B.1.72 (antibody, human IgG1, kappa, V domains shown)
VH: B1 VH with P28T, T51V, L53P, G54F, D55E, T105L, D107V, M108D
VL: B1 VL
B13: 2B.1.74 (antibody, human IgG1, kappa, V domains shown)
VH: B1 VH with P28T, T51Y, L53P, G54F, D55R, T105L, D107V, M108D
VL: B1 VL
B14: 2B.1.52 (antibody, human IgG1, kappa, V domains shown)
VH: B1 VH with P28T, T51F, H52S, T105L, D107V, M108D
VL: B1 VL
B15: 2B.1.33 (antibody, human IgG1, kappa, V domains shown)
VH: B1 VH with P28T, T51Y, L53P, G54F, D55H, T105L, D107V, M108D
VL: B1 VL
B16: 2B.1.93 (antibody, human IgG1, kappa, V domains shown)
VH: B1 VH with P28T, T51I, H52D, L53N, G54Y, D55W, T105L, D107V, M108D
VL: B1 VL
B17: 2B.1.50 (antibody, human IgG1, kappa, V domains shown)
VH: B1 VH with P28T, T51L, H52N, L53F, G54Y, D55S, T105L, D107V, M108D
VL: B1 VL
B18: 2B.1.71 (antibody, human IgG1, kappa, V domains shown)
VH: B1 VH with P28T, T51V, H52W, L53M, G54F, T105L, D107V, M108D
VL: B1 VL
B19: 2B.1.9 (antibody, human IgG1, kappa, V domains shown)
VH: B1 VH with P28T, T51Y, L53P, G54Y, D55L, T105L, D107V, M108D
VL: B1 VL
B20: 2B.1.78 (antibody, human IgG1, kappa, V domains shown)
VH: B1 VH with P28T, T51L, H52S, L53F, G54Y, D55S, T105L, D107V, M108D
VL: B1 VL
B21: 2B.1.55 (antibody, human IgG1, kappa, V domains shown)
VH: B1 VH with P28T, T51V, H52D, L53V, G54F, D55W, T105L, D107V, M108D
VL: B1 VL
B22: 2B.1.80 (antibody, human IgG1, kappa, V domains shown)
VH: B1 VH with P28T, T51Y, H52W, L53A, G54F, D55S, T105L, D107V, M108D
VL: B1 VL
B23: 2B.1.81 (antibody, human IgG1, kappa, V domains shown)
VH: B1 VH with P28T, T51V, H52N, L53N, G54F, D55Y, T105L, D107V, M108D
VL: B1 VL
B24: 2B.1.25 (antibody, human IgG1, kappa, V domains shown)
VH: B1 VH with P28T, T51W, L53P, G54W, D55M, T105L, D107V, M108D
VL: B1 VL
B25: 2B.1.49 (antibody, human IgG1, kappa, V domains shown)
VH: B1 VH with P28T, T51L, H52S, L53F, G54F, D55S, T105L, D107V, M108D
VL: B1 VL
B26: 2B.1.28 (antibody, human IgG1, kappa, V domains shown)
VH: B1 VH with P28T, T51F, H52W, L53A, G54W, D55S, T105L, D107V, M108D
VL: B1 VL
B27: 2B.1.35 (antibody, human IgG1, kappa, V domains shown)
VH: B1 VH with P28T, T51W, L53P, G54F, D55R, T105L, D107V, M108D
VL: B1 VL
B28: 2B.1.65 (antibody, human IgG1, kappa, V domains shown)
VH: B1 VH with P28T, T51Y, H52N, L53A, G54Y, D55T, T105L, D107V, M108D
VL: B1 VL
B29: 2B.1.82 (antibody, human IgG1, kappa, V domains shown)
VH: B1 VH with P28T, T51I, H52N, L53F, G54F, D55S, T105L, D107V, M108D
VL: B1 VL
B30: 2B.1.14 (antibody, human IgG1, kappa, V domains shown)
VH: B1 VH with P28T, T51L, H52W, L53Y, G54F, T105L, D107V, M108D
VL: B1 VL
B31: 2B.1.86 (antibody, human IgG1, kappa, V domains shown)
VH: B1 VH with P28T, T51L, H52S, L53F, G54W, D55T, T105L, D107V, M108D
VL: B1 VL
B32: 2B.1.38 (antibody, human IgG1, kappa, V domains shown)
VH: B1 VH with P28T, T51F, H52W, L53A, G54Y, T105L, D107V, M108D
VL: B1 VL
B33: 2B.1.20 (antibody, human IgG1, kappa, V domains shown)
VH: B1 VH with P28T, T51L, H52D, L53V, G54F, D55W, T105L, D107V, M108D
VL: B1 VL
B34: 2B.1.94 (antibody, human IgG1, kappa, V domains shown)
VH: B1 VH with P28T, T51L, H52V, L53F, G54F, D55S, T105L, D107V, M108D
VL: B1 VL
B35: 2B.1.44 (antibody, human IgG1, kappa, V domains shown)
VH: B1 VH with P28T, T51W, H52W, L53S, G54W, D55G, T105L, D107V, M108D
VL: B1 VL
B36: 2B.1.30 (antibody, human IgG1, kappa, V domains shown)
VH: B1 VH with P28T, T51V, H52S, L53F, G54F, D55S, T105L, D107V, M108D
VL: B1 VL

Molecular target: FGFR3-IIIb (human)
Sequence (chain, as listed by the source limits assumed): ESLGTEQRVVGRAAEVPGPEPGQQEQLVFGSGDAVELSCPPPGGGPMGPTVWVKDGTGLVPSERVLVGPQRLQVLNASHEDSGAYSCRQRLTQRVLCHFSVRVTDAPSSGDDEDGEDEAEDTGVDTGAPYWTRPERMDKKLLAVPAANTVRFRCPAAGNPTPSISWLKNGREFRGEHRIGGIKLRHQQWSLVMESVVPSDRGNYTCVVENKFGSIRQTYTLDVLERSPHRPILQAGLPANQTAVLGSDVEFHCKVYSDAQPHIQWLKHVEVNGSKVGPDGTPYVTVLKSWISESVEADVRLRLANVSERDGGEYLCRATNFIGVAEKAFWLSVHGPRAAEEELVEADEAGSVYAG
Experiment: SPR

| Kd [nM] | Binder |
| --- | --- |
| 0.5 | B1 |

Molecular target: FGFR2-IIIb (human) (UniProt P21802)
Sequence (P21802 other isoform, or with tags, fused parts or gaps limits assumed): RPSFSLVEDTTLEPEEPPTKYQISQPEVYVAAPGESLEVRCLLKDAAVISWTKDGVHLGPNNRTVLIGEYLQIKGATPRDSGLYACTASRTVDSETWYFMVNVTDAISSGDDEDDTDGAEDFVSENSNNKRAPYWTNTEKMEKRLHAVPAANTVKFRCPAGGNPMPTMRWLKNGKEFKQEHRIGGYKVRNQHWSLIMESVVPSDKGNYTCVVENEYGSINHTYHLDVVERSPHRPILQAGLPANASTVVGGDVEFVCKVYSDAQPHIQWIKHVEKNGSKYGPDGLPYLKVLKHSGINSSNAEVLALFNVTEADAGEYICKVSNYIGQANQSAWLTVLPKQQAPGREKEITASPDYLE
Experiment: SPR

| Kd [nM] | Binder |
| --- | --- |
| 3 | B1 |
| 0.29 | B2 |

Molecular target: FGFR2-IIIb (human) (UniProt P21802)
Experiment: SPR, IgG

| Kd [nM] | Binder |
| --- | --- |
| 2.9 | B3 |
| 3 | B1 |
| 1.4 | B4 |
| 5.8 | B5 |
| 6.6 | B6 |
| 5.9 | B7 |

Molecular target: FGFR3-IIIb (human)
Experiment: SPR (Biacore T100), IgG captured by anti-human Fc, FGFR flowed

| Kd [nM] | Binder |
| --- | --- |
| 0.11 | B3 |
| 0.5 | B1 |
| 0.19 | B8 |
| 0.05 | B9 |
| 0.09 | B2 |
| 0.06 | B10 |
| 0.09 | B11 |

Molecular target: FGFR2-IIIb (human) (UniProt P21802)
Experiment: as above

| Kd [nM] | Binder |
| --- | --- |
| 2.9 | B3 |
| 3.5 | B12 |
| 1.4 | B13 |
| 3.9 | B14 |
| 15 | B15 |
| 3 | B1 |
| 1.8 | B8 |
| 0.64 | B9 |
| 5.1 | B16 |
| 2 | B17 |
| 1.6 | B18 |
| 1.4 | B19 |
| 3.2 | B20 |
| 5.9 | B21 |
| 17 | B22 |
| 2.1 | B23 |

| Kd [nM] | Binder |
| --- | --- |
| 2.3 | B24 |
| 1.3 | B25 |
| 1.8 | B26 |
| 9.4 | B27 |
| 2.7 | B28 |
| 4.9 | B29 |
| 0.29 | B2 |
| 1.2 | B10 |
| 1.6 | B30 |
| 1.3 | B31 |
| 1.4 | B11 |
| 1.1 | B32 |
| 1.2 | B33 |
| 3.1 | B34 |
| 3.6 | B35 |
| 4.1 | B36 |

Molecular target: FGFR2-IIIb (human) (UniProt P21802)
Experiment: blocking ELISA: FGFR2-IIIb-Fc captured on an anti-human Fc plate, antibody titrated, FGF-7 (with heparin) is the blocked ligand, bound FGF-7 read as OD450

| IC50 (read off the curve) [nM] | Binder |
| --- | --- |
| 2 | B3 |
| 2 | B1 |

Molecular target: FGFR3-IIIb (human)
Experiment: blocking ELISA: FGFR3-IIIb-Fc captured on an anti-human Fc plate, antibody titrated, FGF-1 (with heparin) is the blocked ligand, bound FGF-1 read as OD450

| IC50 (read off the curve) [nM] | Binder |
| --- | --- |
| 1 to 2 | B3 |
| 1 to 2 | B1 |
